Article PMC1298937, “A Novel Endogenous Inhibitor of the Secreted Streptococcal NAD-Glycohydrolase” (PLoS Pathogens, 2005)

Key:
[1] = target: 6X-His-tagged SPN (SPN-H) expressed from pMAM3.18 (Streptococcus pyogenes strain JRS4); assay: SEC + other: densitometry of SDS-PAGE; SPN-IFS complex assembled in vivo and purified from the cytoplasm of E. coli TOP10(pMAM3.18); Superdex 75 HR 10/30, 20 mM Tris pH 8.5, 100 mM NaCl; peak fractions on Coomassie-stained SDS-PAGE compared with known concentrations of purified SPN and IFS
[2] = target: T1, SPN secreted by S. pyogenes JRS4 (culture supernatant) (Streptococcus pyogenes strain JRS4 …); assay: enzyme inhibition kinetics (competitive model); apparent constant; purified IFS (up to 2.3 nM) with SPN from JRS4 culture supernatant (0.125 U/ml) and varying beta-NAD+ (up to 1.2 mM) in PBS at 37 C; fluorescence of residual beta-NAD+; simultaneous fit; conditions: one partner purified
T1 chain: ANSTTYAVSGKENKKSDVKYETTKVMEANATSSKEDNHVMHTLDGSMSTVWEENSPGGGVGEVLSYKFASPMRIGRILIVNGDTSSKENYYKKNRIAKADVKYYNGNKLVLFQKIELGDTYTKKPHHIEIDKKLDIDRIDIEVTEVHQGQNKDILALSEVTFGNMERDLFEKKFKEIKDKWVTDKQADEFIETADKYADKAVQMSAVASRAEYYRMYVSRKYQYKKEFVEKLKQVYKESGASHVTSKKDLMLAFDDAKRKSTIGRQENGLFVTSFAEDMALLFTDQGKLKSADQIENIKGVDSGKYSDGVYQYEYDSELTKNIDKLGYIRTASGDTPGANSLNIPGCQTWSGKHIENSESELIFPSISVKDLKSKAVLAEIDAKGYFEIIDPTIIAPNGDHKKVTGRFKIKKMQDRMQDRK

B1: Immunity factor for SPN (IFS) with C-terminal c-myc and 6X-His tags (IFS-H), expressed from pMAM3.19 (natural protein)
chain: MYKVPKGLEHYQKMFQKEVTVNDLKKYLIGSDKEYRITRRDSYMGDISDPEVILEYGVYPAFIKGYTQLKANIEEALLEMSNSGQALDIYQAVQTLNAENMLLNYYESLPFYLNRQSILANITKALKDAHIREAMAHYKLGEFAHYQDTMLDMVERTIETF
notes: source: E. coli TOP10(pMAM3.19), arabinose-induced: cytoplasmic extract; purified (TALON, Resource Q); not shown: c-myc, C-terminal, kept; 6X-His, C-terminal, kept
- stoichiometry N [1]: 1
- Ki [2]: 2 nM
